Assay results: patent US20250188193A1

Tests used:
[1] = target: Rituximab G2 (galactosylated afucosylated glycoform); assay: SPR; drawn table, KD (G2)
[2] = target: Rituximab G2 (galactosylated afucosylated glycoform); assay: SPR (Biacore T200), 1:1 Langmuir kinetic fit
[3] = target: Rituximab G2F (galactosylated fucosylated glycoform); assay: SPR (Biacore T200), 1:1 Langmuir kinetic fit
[4] = target: Rituximab G2 (galactosylated afucosylated glycoform); assay: SPR, 1:1 Langmuir global fit, 1024 to 32 nM

| Kd [1] [nM] | Kd [2] [nM] | Kd [3] [nM] | Kd [4] [nM] | Binder |
| --- | --- | --- | --- | --- |
| 4740 | – | – | – | E2 (VHH) VHH: QVQLQESGGGLVQAGGSLRLSCAASSYISRYHTMGWYRQAPGKERSFVAGITWGGLTYYADSVKGRFTVSRDNAKNTVYLQMNSLKPEDTAVYYCAVDGGTRADPYHYYWGQGTQVTVSS |
| 2480 | – | – | – | E4 (VHH) VHH: QVQLQESGGGLVQAGGSLRLSCAASPYISRYHTMGWYRQAPGKEREFVAAITWGGSTYYADSVKGRFTISRDNAKNTVYLQMNSLKPEDTAVYYCAVDGGTYADPYHYYWGQGTQVTVSS |
| – | 323 | 1900 | 353 | D3 (VHH, not shown: small tags and cut ends) VHH: QVQLQESGGGLVQAGGSLRLSCAASGNISADRYMGWYRQAPGKEREFVAAIGYGGTTYYADSVKGRFTISRDNAKNTVYLQMNSLKPEDTAVYYCAVVDGAHSRHRYWGQGTQVTVSS |
